According to patent publication US20130137855A1 (CSL, published 2013):

T1: Soluble human IL-3Rα (human, UniProt P26951 20-305, limits assumed)
T1 construct: The assay used 'soluble human IL-3Rα'; also called IL-3Rα chain; interleukin 3 receptor alpha chain
T1 sequence: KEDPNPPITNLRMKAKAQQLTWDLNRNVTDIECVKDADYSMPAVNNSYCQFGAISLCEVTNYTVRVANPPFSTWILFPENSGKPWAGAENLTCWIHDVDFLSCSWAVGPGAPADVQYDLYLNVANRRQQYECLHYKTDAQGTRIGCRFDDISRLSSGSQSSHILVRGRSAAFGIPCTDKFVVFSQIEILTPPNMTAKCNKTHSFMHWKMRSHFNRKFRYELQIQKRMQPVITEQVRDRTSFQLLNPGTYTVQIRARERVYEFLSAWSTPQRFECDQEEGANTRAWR

B1: CSL362B (antibody, human IgG1, kappa, V domains shown)
VH: EVQLVQSGAEVKKPGESLKISCKGSGYSFTDYYMKWARQMPGKGLEWMGDIIPSNGATFYNQKFKGQVTISADKSISTTYLQWSSLKASDTAMYYCARSHLLRASWFAYWGQGTMVTVSS
VL: DIVMTQSPDSLAVSLGERATINCESSQSLLNSGNQKNYLTWYQQKPGQPPKPLIYWASTRESGVPDRFSGSGSGTDFTLTISSLQAEDVAVYYCQNDYSYPYTFGQGTKLEIKR
modifications: Heavy chain constant region is afucosylated
notes: Expressed in FUT8-knock-out CHO cells (Potelligent)

Experiments:
[1] = biological target: Soluble human IL-3Rα (human) (UniProt P26951); assay: SPR (Biacore), soluble human IL-3Rα immobilized on CM-5 chip, scFv injected, 25 °C
Soluble human IL-3Rα [2] = biological target: T1, Soluble human IL-3Rα; assay: SPR (Biacore), mAb captured by anti-human Fc antibody, soluble human IL-3Rα injected, 25 °C
Soluble human IL-3Rα [3] = biological target: T1, Soluble human IL-3Rα; assay: SPR (Biacore), mAb captured by anti-mouse Fc antibody, soluble human IL-3Rα injected, 25 °C

Row | Molecule | Kd (Soluble human IL-3Rα [2]) | further results
1 | CSL362 scFv | – | Kd [1]: 2.2 nM
2 | chimeric form of parental murine mAb (human IgG1) (antibody) | 1 nM | –
3 | parental murine mAb (7G3) (antibody) | – | Kd (Soluble human IL-3Rα [3]): 0.92 nM
4 | B1 | ~0.43 nM | –
